Patent publication US20110064740A1 (GlaxoSmithKline, published 2011)
One block for each binder: values may come before it. Ends that are not written are not given here. * marks the point of attachment. Biotin = O=C1N[C@H]2[C@H](CS[C@H]2CCCCC(=O)*)N1

Assays:
[1] = target: T1, human Aβ peptide (length not stated) (human, UniProt P05067 672-711); experiment: competition ELISA, β-amyloid in solution pre-incubated with the antibody; competitor: immobilised mouse 2E7; Experiment 2
T1 construct: also called β-amyloid in solution
T1 sequence (P05067 672-711): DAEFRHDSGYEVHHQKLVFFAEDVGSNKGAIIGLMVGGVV
Procedure: (§1) 2) β-amyloid in solution; a constant concentration of β-amyloid was pre-incubated with a dilution series of humanised 2E7 antibody variants—the mixture including complexed and free amyloid was added for a short time to wells containing immobilised mouse 2E7 MAb. The amount of free β-amyloid that was still available for binding the immobilised parental 2E7 MAb was then detected.

[2] = target: T1, human Aβ peptide (length not stated); experiment: competition ELISA, β-amyloid in solution pre-incubated with the antibody; competitor: immobilised mouse 2E7; Experiment 1
Procedure: as §1

[3] = target: T2, human Aβ peptide (1-40) biotinylated at the C terminus (human, UniProt P05067 672-711, biotinylated at the C-terminus); experiment: SPR Biacore 3000, Method A(i): C-terminally biotinylated β-amyloid 1-40 on streptavidin chip, antibody as analyte; Run 1
T2 construct: domain: β-amyloid peptide (1-40); Numbers 1-40 count on the β-amyloid peptide, not on APP; also called beta-amyloid 1-40 peptide (biotinylated at the C-terminus); streptavidin-captured beta-amyloid (1-40)
T2 sequence (P05067 672-711 limits assumed): as the sequence (P05067 672-711) above
Procedure: (§2) (i) Briefly, <20 resonance units of beta-amyloid 1-40 peptide (biotinylated at the C-terminus) were captured on a streptavidin biosensor chip (as used for Table 10A). The antibodies were diluted down in HBS-EP buffer and passed over the streptavidin/beta-amyloid surface at concentrations ranging from 0.001 nM-8 nM (for Table 10A). Two separate runs were carried out; each run was carried out on a new streptavidin/beta-amyloid surface. Runs 1 and 2 were essentially the same though there were some differences in the parameters used; Run 1 was carried out using a chip surface on which 16 RU's of beta-amyloid were captured, and antibody concentrations of 0.001 nM-8 nM were used, an association time of 4 minutes and a dissociation time of 20 minutes were used at a flow rate of 50 μl per minute. For Run 2, less than 10 RU's of beta-amyloid were captured and antibody concentrations of 0.003125 nM-8 nM were used. The flow rate and association times were the same as Run 1, however the dissociation time was reduced to 15 minutes. (ii) Beta amyloid (1-40) and (1-42) were amine-coupled on different surfaces of a CM5 biosensor chip to a level of <20 resonance units (as used for Table 10B). The antibodies were diluted down in HBS-EP buffer and passed over the biosensor/beta-amyloid surface at concentrations ranging from 1 nM-64 nM (as used for Table 10B).
(§3) In both methods, regeneration was via a pulse of 100 mM H₃PO₄, and for Table 10A data also followed by a pulse of 50 mM NaOH. […] All runs were double referenced against buffer blank injections. Analysis was carried out using the Biacore™ analysis software BIAevaluation version 4.1.

[4] = target: T3, human beta-amyloid peptide (1-40) (human, UniProt P05067 672-711); experiment: SPR Biacore 3000, Method B: antibody captured on protein A surface, β-amyloid 4-500 nM as analyte; n = 3; peptide length not given
T3 construct: domain: beta-amyloid peptide (1-40); Unlabelled peptide: amine-coupled to a CM5 chip (Method A(ii)) or in solution as analyte (Method B); also called beta-amyloid (1-40)
T3 sequence (P05067 672-711 limits assumed): as the sequence (P05067 672-711) above
Procedure: (§4) In the second instance the assay was reversed, in that antibodies were first captured to a level of 1000-2500 resonance units on an anti-mouse IgG polyclonal antibody surface (for recombinant mouse 2E7 MAb) or a protein A surface (for humanized H2L1) of a CM5 biosensor chip. Freshly prepared beta-amyloid (1-40) or (1-42) was diluted down in HBS-EP buffer and passed over the captured-antibody surface at concentrations ranging from 4-500 nM (Table 10C and 10D).
as §3

[5] = target: T3, human beta-amyloid peptide (1-40); experiment: SPR Biacore 3000, Method A(ii): β-amyloid amine-coupled to CM5 chip, antibody 1-64 nM as analyte
Procedure: as §2, §3

[6] = target: T4, human beta-amyloid peptide (1-42) (human, UniProt P05067 672-713); experiment: as above
T4 construct: domain: beta-amyloid peptide (1-42); Unlabelled peptide: amine-coupled to a CM5 chip (Method A(ii)) or in solution as analyte (Method B); also called beta-amyloid (1-42)
T4 sequence (P05067 672-713 limits assumed): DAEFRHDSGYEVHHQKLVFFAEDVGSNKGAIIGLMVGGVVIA
Procedure: as §2, §3

[7] = target: T2, human Aβ peptide (1-40) biotinylated at …; experiment: SPR Biacore 3000, Method A(i): C-terminally biotinylated β-amyloid 1-40 on streptavidin chip, antibody as analyte; Average(SD) of two runs
Procedure: as §2, §3

[8] = target: T2, human Aβ peptide (1-40) biotinylated at …; experiment: competition ELISA, biotinylated human Aβ (1-40) on streptavidin plate; competitor: mouse 2E7 at constant concentration; Experiment 1
Procedure: (§5) Two types of competition ELISA were established in order to compare the Aβ binding activity of the three humanised variants compared to the 2E7 chimeric antibody. 1) Immobilised β-amyloid; biotinylated human Aβ peptide (1-40) was immobilized through Streptavidin on ELISA plates Mouse 2E7 antibody was added at a constant concentration along with a dilution series of 2E7-derived humanised variant antibodies. Bound mouse 2E7 MAb was then detected with anti-mouse IgG conjugate.

[9] = target: T2, human Aβ peptide (1-40) biotinylated at …; experiment: Aβ binding ELISA, human Aβ (1-40) biotinylated at the C terminus
[10] = target: T2, human Aβ peptide (1-40) biotinylated at …; experiment: Aβ binding ELISA with culture supernatant, Aβ peptide (1-40)
[11] = target: T5, Peptide Aβ2-13, AEFRHDSGYEVHGSGK-biotin; experiment: Biacore, peptide on streptavidin chip
T5 construct: The range counts on the β-amyloid peptide; also called 2-13 peptide; β-amyloid peptide 2-13
T5 peptide: Ac-AEFRHDSGYEVHGSGK(Biotin)
Procedure: (§6) In addition to the experiments described above, the Biacore™ 3000 optical biosensor was used to monitor the binding of 2E7 antibody to selected β-amyloid sequence derived peptides. Binding was measured by injecting test antibodies at up to 64 nM for 5 minute over peptides captured on separate streptavidin chip surfaces (130-230 RU (resonance units)). A running buffer (HBS-EP) containing 0.01 M HEPES pH7.4, 0.15 M NaCl, 3 mM EDTA and 0.005% Surfactant P20™ at 25° C. was used at a flow rate of 20 ul/min. All runs were double referenced against a blank streptavidin surface and blank injections. Analysis was carried out using the Biacore™ analysis software BIAevaluation™ version 4.1.
(§7) In a study similar to the epitope mapping study on 2E7 using the Surface Plasmon Resonance assay described above, H2L1 behaved similarly to 2E7 in binding to the peptide encompassing amino acids 1-12 (Aβ1, SEQ ID No:15) of the β-amyloid peptide and not to the peptide encompassing amino acids 2-13 of the β-amyloid peptide (Aβ2-13, SEQ ID No:44).

[12] = target: T2, human Aβ peptide (1-40) biotinylated at …; experiment: competition ELISA, biotinylated human Aβ (1-40) on streptavidin plate; competitor: mouse 2E7 at constant concentration; Experiment 2
Procedure: as §5

[13] = target: T2, human Aβ peptide (1-40) biotinylated at …; experiment: Aβ binding ELISA, human Aβ (1-40) biotinylated at the C terminus; remark: listed apart in the source
[14] = target: T2, human Aβ peptide (1-40) biotinylated at …; experiment: as above; remark: listed apart in the source
[15] = target: T2, human Aβ peptide (1-40) biotinylated at …; experiment: SPR Biacore 3000, Method A(i): C-terminally biotinylated β-amyloid 1-40 on streptavidin chip, antibody as analyte; Run 2
Procedure: as §2, §3

[16] = target: T5, Peptide Aβ2-13, AEFRHDSGYEVHGSGK-biotin; experiment: Biacore 3000, peptide on streptavidin chip
Procedure: as §6
In a separate experiment the β-amyloid 1-40 peptide was captured via its N-terminal aspartic acid residue that had been biotinylated. This peptide was captured onto a Biacore™ streptavidin coated chip as previously described. Antibody 2E7 injected at 66 nM for 1 minute could not bind this peptide. Therefore, it is concluded that the previously descibed N-terminal binding site was masked by the linker and capture method, thus further confirming the extreme N-terminus as containing the core binding site

[17] = target: T6, Set (B) peptide encompassing amino acids 1-5 of the β-amyloid peptide, DAEFR--GSGGSGGSGSK-biotin; experiment: SRU BIND biosensor, peptide set (B)
T6 peptide: DAEFRGSGGSGGSGSK(Biotin)

[18] = target: T7, Set (B) peptide encompassing amino acids 1-6 of the β-amyloid peptide, DAEFRH--GSGGSGGSGK-biotin; experiment: SRU BIND biosensor, peptide set (B)
T7 peptide: DAEFRHGSGGSGGSGK(Biotin)

[19] = target: T8, Set (B) peptide encompassing amino acids 1-7 of the β-amyloid peptide, DAEFRHD--GSGGSGGSK-biotin; experiment: SRU BIND biosensor, peptide set (B)
T8 peptide: DAEFRHDGSGGSGGSK(Biotin)

[20] = target: T9, Peptide APP1, AcNH-SEVKMDAEFRHDGSGK-biotin; experiment: Biacore, peptide on streptavidin chip
T9 construct: also called APP derived peptide APP1
T9 peptide: Ac-SEVKMDAEFRHDGSGK(Biotin)
Procedure: as §6, §7

[21] = target: T3, human beta-amyloid peptide (1-40); experiment: SPR Biacore 3000, Method B: antibody captured on anti-mouse IgG surface, β-amyloid 4-500 nM as analyte; n = 3; peptide length not given
Procedure: as §4, §3

- IC50 [1]: 0.119 µg/mL
- IC50 [2]: 0.075 µg/mL
- Kd [3]: 0.0581 nM
- Kd [4]: 7.32 nM
- koff [4]: 0.00075 s⁻¹
- kon [4]: 106000 M⁻¹ s⁻¹
- Kd [5]: 0.366 nM
- koff [5]: 0.000122 s⁻¹
- kon [5]: 333000 M⁻¹ s⁻¹
- Kd [6]: 0.456 nM
- koff [6]: 0.000155 s⁻¹
- kon [6]: 340000 M⁻¹ s⁻¹
- Kd [7]: 0.054 nM
- IC50 [8]: 1.28 µg/mL
- EC50 [9]: 0.044 µg/mL
- EC50 [10]: 0.113 µg/mL
- binding result [11]: no binding
- IC50 [12]: 1.66 µg/mL
- EC50 [13]: 0.041 µg/mL
- EC50 [14]: 0.048 µg/mL
- Kd [15]: 0.0498 nM
B1: Humanised 2E7 variant H2L1 (antibody, human IgG1, kappa, V domains shown)
VH: EVQLVESGGGLVQPGGSLRLSCAVSGFTFSDNGMAWVRQAPGKGLEWVSFISNLAYSIDYADTVTGRFTISRDNAKNSLYLQMNSLRAEDTAVYYCVSGTWFAYWGQGTLVTVSS
VL: DIVMTQSPLSLPVTPGEPASISCRVSQSLLHSNGYTYLHWYLQKPGQSPQLLIYKVSNRFSGVPDRFSGSGSGTDFTLKISRVEAEDVGVYYCSQTRHVPYTFGGGTKVEIKR
notes: Human IgG1 with L235A and G237A, human kappa; also called L1+H2; H2L1 whole IgG

- Kd [3]: 0.0383 nM
- binding result [16]: no binding (tested: up to 64 nM)
- binding result [17]: binds
- binding result [18]: binds
- binding result [19]: binds
- Kd [5]: 0.317 nM
- koff [5]: 0.000128 s⁻¹
- kon [5]: 405000 M⁻¹ s⁻¹
- Kd [6]: 0.394 nM
- koff [6]: 0.000151 s⁻¹
- kon [6]: 382000 M⁻¹ s⁻¹
- Kd [7]: 0.0361 nM
- binding result [20]: no binding
- Kd [21]: 1.58 nM
- koff [21]: 0.000428 s⁻¹
- kon [21]: 283000 M⁻¹ s⁻¹
- Kd [15]: 0.0338 nM
B2: Mouse monoclonal antibody 2E7 (antibody, mouse IgG2a, V domains shown)
VH: EVKLVESGGGLVQPGGSLKLSCAVSGFTFSDNGMAWVRQAPRKGPEWIAFISNLAYSIDYADTVTGRFTISRDNAKNTLYLEMSSLRSEDTAMYYCVSGTWFAYWGQGTLVTVSA
VL: DVVLTQTPLSLPVSLGDQASISCRVSQSLLHSNGYTYLHWYLQKPGQSPKLLIYKVSNRFSGVPDRFSGSGSGTDFTLKISRVEAEDLGVYFCSQTRHVPYTFGGGTKLEIK
notes: Murine IgG2a heavy chain, murine kappa light chain; also called 2E7 MAb; parental mouse 2E7 MAb
